The values that follow come from patent US20210079109A1 (Regeneron, published 2021).

The target of assay [1] is T1, human CD63 (human, UniProt P08962 2-238).
T1 construct: stably transfected in NIH3T3/hCD63; The cell line is named under assay; also called hCD63
T1 sequence: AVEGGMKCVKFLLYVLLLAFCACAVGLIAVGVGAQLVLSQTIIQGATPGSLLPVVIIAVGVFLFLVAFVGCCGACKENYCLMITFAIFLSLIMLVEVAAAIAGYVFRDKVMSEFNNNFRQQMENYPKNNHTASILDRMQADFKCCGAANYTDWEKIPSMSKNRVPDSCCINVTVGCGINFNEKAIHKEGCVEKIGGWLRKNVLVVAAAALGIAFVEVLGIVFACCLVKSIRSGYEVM
As to the kind of experiment: ECL, NIH3T3/hCD63 cells. The procedure, abridged: (§1)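 Detached cells (~2.0×10⁴/well: NIH3T3/hCD63, LNCAP, U87MG, or parental NIH3T3 as negative control) were plated on carbon-electrode plates and blocked with 2% BSA. Anti-CD63 or isotype antibodies (1.7 pM–100 nM, in duplicate) were bound 1 h at RT, then washed. Signal read as electrochemiluminescence.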

Assay [2] addresses T1, human CD63. The assay can be described thus: ECL, LNCAP cells. The procedure, abridged:
as §1

For assay [3], the target named is T1, human CD63. As to the kind of experiment: ECL, U87MG cells. In short, it runs like this: as §1
In assay [4] the target is T1, human CD63. As to the kind of experiment: cell-based or functional assay.
Assay [5] has as its target T2, recombinant human CD63 extracellular loop 2 expressed with a C-terminal Myc-Myc-hexahistidine (human).
T2 construct: also called hCD63 EC loop 2-MMH; human CD63 EC loop 2-MMH
The assay can be described thus: SPR Biacore, mAb captured, 25C. In short, it runs like this: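 Anti-CD63 mAbs captured on anti-mouse Fc or anti-human Fab surfaces; CD63 EC2 reagents flowed in HBS-ET, pH 7.4, at 25° C or 37° C. ka and kd from 1:1 binding model with mass transport limitation; KD and t½ calculated from kinetic rates.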
Background: Surface plasmon resonance follows binding to a sensor surface in real time, without labels.

T2 sequence (chain, as listed by the source limits assumed): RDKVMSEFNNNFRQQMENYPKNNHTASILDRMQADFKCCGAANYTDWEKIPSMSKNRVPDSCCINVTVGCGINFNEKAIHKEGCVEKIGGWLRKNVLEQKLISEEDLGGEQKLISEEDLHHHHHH

B1: H2M12450N (antibody, V domains shown)
VH: QVQLQESGPKVVKPSETLSLTCTVSGGSISSYYWNWIRQSPGKGLEWIGYTKRGYTDYNPSLRSRVTISEDTSKNQFSLRISSVTAADTAVYYCAQMGWGSHAFDMWGQGTMVAVSS
VL: EIVLTQSPGTLSLSPGERATLSCRASQSVNSRYLAWYQQKPGQAPRLLIYGASSRATGIPDRCSGSGSGTDFTLTISRLEPEDFAVYYCQQYGSSPWTFGQGTKVEIK
notes: also called H2aM12450N; mAb12450
Take B1: in the assay with human CD63 [1], the EC50 stood at 0.97 nM and the “binding ratio at 3.7 nM vs NIH3T3” value turned out to be 281 fold. In the assay with human CD63 [2], the EC50 amounted to 1.4 nM and the “binding ratio at 3.7 nM vs NIH3T3” value is 20 fold. In the assay with human CD63 [3], it took 1.4 nM to reach a half-maximal effect (EC50) and the “binding ratio at 3.7 nM vs NIH3T3” value was 272 fold. In the assay with human CD63 [4], the “T47D (nM) IC50, indirect cytotoxicity with Fab anti-mFc-MMAF” value was 0.24 nM. For the same molecule, in assay [5], the “100 nM Ag Bound (RU)” value was 65 RU, the Kd is 1.23 nM, the dissociation rate constant (koff) is 0.000279 s⁻¹ and the association rate constant (kon) turned out to be 227000 M⁻¹ s⁻¹. Further, the t1/2 in assay [5] was 41 min.

B2: H2M12395N (antibody, V domains shown)
VH: QVQLQESGPRLVKPSETLSLTCIVSGGSISNFYWNWIRQSPGKGLEWIGYFFYTGTIDYNPSLKSRVTISLDTSKNQFSLNLRLLTAADAAVYYCARMGLGANAFDIWGHGTMVTVSS
VL: EIVLTQSPGTLSLSPGERATLSCRASQHVSSNYLAWYQQKPGQAPRLLIYGGSSRATGIPDRFSGSGSGTDFTLTISRLEPADFAVFYCQQYGNSPWTFGQGTKVEMK
notes: also called H2aM12395N
On to B2, for which, in the assay with human CD63 [1], the EC50 came to 0.57 nM and the “binding ratio at 3.7 nM vs NIH3T3” value worked out at 91 fold. For the same molecule, in the assay with human CD63 [2], the EC50 is 1.7 nM and the “binding ratio at 3.7 nM vs NIH3T3” value came out at 7 fold. In the assay with human CD63 [3], it took 0.95 nM to reach a half-maximal effect (EC50) and the “binding ratio at 3.7 nM vs NIH3T3” value came out at 52 fold. In assay [5], the “100 nM Ag Bound (RU)” value turned out to be 42 RU, the Kd amounted to 11 nM, the koff turned out to be 0.00182 s⁻¹ and the kon is 166000 M⁻¹ s⁻¹. Further, the t1/2 in assay [5] was determined as 6 min.

B3: H1M12451N (antibody, V domains shown)
VH: QVQLQESGPGLMKPSETLSLTCTVSGGSFSSYYWNWIRQSPGKGLEWIGYIRYSGDTNYKPSLKSRFTISIDTSKNLFSLRLKSVTAADTAVYYCARMGLGSDAFDIWGQGTMVTVSS
VL: EIVLTQSPGTLSLSPGERATLSCRASQSVNNNYLAWYQQKPGQAPRLLIYGVFNRATNIPDRFSGSGSGTDFTLTISRLEPEDFAVYYCQQYGSSPWTFGQGTKVEIK
Consider B3, for which, in the assay with human CD63 [1], a half-maximal response (EC50) required 0.29 nM and the “binding ratio at 3.7 nM vs NIH3T3” value was found to be 256 fold. Further, in the assay with human CD63 [2], the EC50 was found to be 0.35 nM and the “binding ratio at 3.7 nM vs NIH3T3” value came out at 18 fold. Besides, in the assay with human CD63 [3], the EC50 was 0.79 nM and the “binding ratio at 3.7 nM vs NIH3T3” value stood at 171 fold. Further, in assay [5], the “100 nM Ag Bound (RU)” value came out at 52 RU, the Kd was found to be 5 nM, the koff was 0.00043 s⁻¹ and the kon was determined as 85900 M⁻¹ s⁻¹. The t1/2 in assay [5] is 27 min.

Broadly, the EC50 is the concentration that produces a half-maximal response. A high value points to a less potent agent. One may read the Kd as the free concentration of one partner at which half of the binding sites on the other are occupied at equilibrium, for simple one-to-one binding. Usually koff stands for a measure of how fast the partners let go of each other. In general, kon refers to the second-order rate constant of association.
